The Human Domainome abundance scans (Beltran et al. 2025)
± gives the uncertainty stated by the source.

B1: TOX high mobility group box family member 3, residues 256 to 323; numbered along this chain, O15405 (parent)
chain: QKPVSAYALFFRDTQAAIKGQNPNATFGEVSKIVASMWDSLGEEQKQVYKRKTEAAKKEYLKALAAYR

Variants of: B1
Test: abundance fitness (aPCA) (normalised: wild type 0, dead -1); higher = more abundant; growth selection in yeast, the domain comes from the species named
Conditions: Homo sapiens

| Variant | abundance fitness |
| --- | --- |
| QKPVSAYALFFRDTQAAIKGQNPNATFGEVSKIVASMWDSLFEEQKQVYKRKTEAAKKEYLKALAAYR | -1.05 ± 0.32 |
| QKPVSAYALFFRDTQAAIKGQNPNATFGEVSKIVASMWDSLHEEQKQVYKRKTEAAKKEYLKALAAYR | -0.075 ± 0.11 |
| QKPVSAYALFFRDTQAAIKGQNPNATFGEVSKIVASMWDSLKEEQKQVYKRKTEAAKKEYLKALAAYR | -0.037 ± 0.077 |
| QKPVSAYALFFRDTQAAIKGQNPNATFGEVSKIVASMWDSLMEEQKQVYKRKTEAAKKEYLKALAAYR | -0.613 ± 0.068 |
| QKPVSAYALFFRDTQAAIKGQNPNATFGEVSKIVASMWDSLNEEQKQVYKRKTEAAKKEYLKALAAYR | 0.108 ± 0.079 |
| QKPVSAYALFFRDTQAAIKGQNPNATFGEVSKIVASMWDSLQEEQKQVYKRKTEAAKKEYLKALAAYR | -0.153 ± 0.09 |
| QKPVSAYALFFRDTQAAIKGQNPNATFGEVSKIVASMWDSLREEQKQVYKRKTEAAKKEYLKALAAYR | -0.275 ± 0.052 |
| QKPVSAYALFFRDTQAAIKGQNPNATFGEVSKIVASMWDSLSEEQKQVYKRKTEAAKKEYLKALAAYR | 0.086 ± 0.048 |
| QKPVSAYALFFRDTQAAIKGQNPNATFGEVSKIVASMWDSLVEEQKQVYKRKTEAAKKEYLKALAAYR | -0.59 ± 0.079 |
| QKPVSAYALFFRDTQAAIKGQNPNATFGEVSKIVASMWDSLWEEQKQVYKRKTEAAKKEYLKALAAYR | -0.858 ± 0.14 |
| QKPVSAYALFFRDTQAAIKGQNPNATFGEVSKIVASMWDSLYEEQKQVYKRKTEAAKKEYLKALAAYR | -0.525 ± 0.15 |
| QKPVSAYALFFRDTQAAIKGQNPNATFGEVSKIVASMWDSLGAEQKQVYKRKTEAAKKEYLKALAAYR | -0.085 ± 0.054 |
| QKPVSAYALFFRDTQAAIKGQNPNATFGEVSKIVASMWDSLGCEQKQVYKRKTEAAKKEYLKALAAYR | -0.165 ± 0.1 |
| QKPVSAYALFFRDTQAAIKGQNPNATFGEVSKIVASMWDSLGDEQKQVYKRKTEAAKKEYLKALAAYR | -0.151 ± 0.12 |
| QKPVSAYALFFRDTQAAIKGQNPNATFGEVSKIVASMWDSLGFEQKQVYKRKTEAAKKEYLKALAAYR | -0.237 ± 0.079 |
| QKPVSAYALFFRDTQAAIKGQNPNATFGEVSKIVASMWDSLGGEQKQVYKRKTEAAKKEYLKALAAYR | -0.43 ± 0.099 |
| QKPVSAYALFFRDTQAAIKGQNPNATFGEVSKIVASMWDSLGHEQKQVYKRKTEAAKKEYLKALAAYR | -0.27 ± 0.13 |
| QKPVSAYALFFRDTQAAIKGQNPNATFGEVSKIVASMWDSLGIEQKQVYKRKTEAAKKEYLKALAAYR | -0.339 ± 0.18 |
| QKPVSAYALFFRDTQAAIKGQNPNATFGEVSKIVASMWDSLGKEQKQVYKRKTEAAKKEYLKALAAYR | -0.218 ± 0.1 |
| QKPVSAYALFFRDTQAAIKGQNPNATFGEVSKIVASMWDSLGMEQKQVYKRKTEAAKKEYLKALAAYR | -0.255 ± 0.12 |
| QKPVSAYALFFRDTQAAIKGQNPNATFGEVSKIVASMWDSLGNEQKQVYKRKTEAAKKEYLKALAAYR | -0.374 ± 0.17 |
| QKPVSAYALFFRDTQAAIKGQNPNATFGEVSKIVASMWDSLGPEQKQVYKRKTEAAKKEYLKALAAYR | 0.058 ± 0.056 |
| QKPVSAYALFFRDTQAAIKGQNPNATFGEVSKIVASMWDSLGQEQKQVYKRKTEAAKKEYLKALAAYR | -0.002 ± 0.07 |
| QKPVSAYALFFRDTQAAIKGQNPNATFGEVSKIVASMWDSLGREQKQVYKRKTEAAKKEYLKALAAYR | -0.274 ± 0.075 |
| QKPVSAYALFFRDTQAAIKGQNPNATFGEVSKIVASMWDSLGSEQKQVYKRKTEAAKKEYLKALAAYR | -0.118 ± 0.051 |
| QKPVSAYALFFRDTQAAIKGQNPNATFGEVSKIVASMWDSLGTEQKQVYKRKTEAAKKEYLKALAAYR | -0.022 ± 0.06 |
| QKPVSAYALFFRDTQAAIKGQNPNATFGEVSKIVASMWDSLGVEQKQVYKRKTEAAKKEYLKALAAYR | -0.12 ± 0.059 |

| Variant | abundance fitness |
| --- | --- |
| QKPVSAYALFFRDTQAAIKGQNPNATFGEVSKIVASMWDSLGWEQKQVYKRKTEAAKKEYLKALAAYR | -0.359 ± 0.07 |
| QKPVSAYALFFRDTQAAIKGQNPNATFGEVSKIVASMWDSLGYEQKQVYKRKTEAAKKEYLKALAAYR | 0.076 ± 0.11 |
| QKPVSAYALFFRDTQAAIKGQNPNATFGEVSKIVASMWDSLGEAQKQVYKRKTEAAKKEYLKALAAYR | -0.116 ± 0.051 |
| QKPVSAYALFFRDTQAAIKGQNPNATFGEVSKIVASMWDSLGECQKQVYKRKTEAAKKEYLKALAAYR | 0.023 ± 0.18 |
| QKPVSAYALFFRDTQAAIKGQNPNATFGEVSKIVASMWDSLGEDQKQVYKRKTEAAKKEYLKALAAYR | 0.069 ± 0.067 |
| QKPVSAYALFFRDTQAAIKGQNPNATFGEVSKIVASMWDSLGEFQKQVYKRKTEAAKKEYLKALAAYR | -0.541 ± 0.061 |
| QKPVSAYALFFRDTQAAIKGQNPNATFGEVSKIVASMWDSLGEGQKQVYKRKTEAAKKEYLKALAAYR | -0.17 ± 0.06 |
| QKPVSAYALFFRDTQAAIKGQNPNATFGEVSKIVASMWDSLGEIQKQVYKRKTEAAKKEYLKALAAYR | -0.613 ± 0.19 |
| QKPVSAYALFFRDTQAAIKGQNPNATFGEVSKIVASMWDSLGEKQKQVYKRKTEAAKKEYLKALAAYR | 0.066 ± 0.099 |
| QKPVSAYALFFRDTQAAIKGQNPNATFGEVSKIVASMWDSLGELQKQVYKRKTEAAKKEYLKALAAYR | -0.556 ± 0.062 |
| QKPVSAYALFFRDTQAAIKGQNPNATFGEVSKIVASMWDSLGEMQKQVYKRKTEAAKKEYLKALAAYR | -0.493 ± 0.096 |
| QKPVSAYALFFRDTQAAIKGQNPNATFGEVSKIVASMWDSLGENQKQVYKRKTEAAKKEYLKALAAYR | -0.11 ± 0.13 |
| QKPVSAYALFFRDTQAAIKGQNPNATFGEVSKIVASMWDSLGERQKQVYKRKTEAAKKEYLKALAAYR | -0.359 ± 0.07 |
| QKPVSAYALFFRDTQAAIKGQNPNATFGEVSKIVASMWDSLGESQKQVYKRKTEAAKKEYLKALAAYR | -0.101 ± 0.05 |
| QKPVSAYALFFRDTQAAIKGQNPNATFGEVSKIVASMWDSLGETQKQVYKRKTEAAKKEYLKALAAYR | -0.072 ± 0.076 |
| QKPVSAYALFFRDTQAAIKGQNPNATFGEVSKIVASMWDSLGEVQKQVYKRKTEAAKKEYLKALAAYR | -0.209 ± 0.046 |
| QKPVSAYALFFRDTQAAIKGQNPNATFGEVSKIVASMWDSLGEWQKQVYKRKTEAAKKEYLKALAAYR | -0.515 ± 0.073 |
| QKPVSAYALFFRDTQAAIKGQNPNATFGEVSKIVASMWDSLGEYQKQVYKRKTEAAKKEYLKALAAYR | -0.955 ± 0.25 |
| QKPVSAYALFFRDTQAAIKGQNPNATFGEVSKIVASMWDSLGEEAKQVYKRKTEAAKKEYLKALAAYR | -0.154 ± 0.075 |
| QKPVSAYALFFRDTQAAIKGQNPNATFGEVSKIVASMWDSLGEECKQVYKRKTEAAKKEYLKALAAYR | -0.486 ± 0.087 |
| QKPVSAYALFFRDTQAAIKGQNPNATFGEVSKIVASMWDSLGEEDKQVYKRKTEAAKKEYLKALAAYR | 0.132 ± 0.16 |
| QKPVSAYALFFRDTQAAIKGQNPNATFGEVSKIVASMWDSLGEEEKQVYKRKTEAAKKEYLKALAAYR | 0.092 ± 0.13 |
| QKPVSAYALFFRDTQAAIKGQNPNATFGEVSKIVASMWDSLGEEFKQVYKRKTEAAKKEYLKALAAYR | -0.339 ± 0.091 |
| QKPVSAYALFFRDTQAAIKGQNPNATFGEVSKIVASMWDSLGEEGKQVYKRKTEAAKKEYLKALAAYR | -0.17 ± 0.055 |
| QKPVSAYALFFRDTQAAIKGQNPNATFGEVSKIVASMWDSLGEEHKQVYKRKTEAAKKEYLKALAAYR | 0.098 ± 0.14 |
| QKPVSAYALFFRDTQAAIKGQNPNATFGEVSKIVASMWDSLGEEIKQVYKRKTEAAKKEYLKALAAYR | -0.479 ± 0.1 |
| QKPVSAYALFFRDTQAAIKGQNPNATFGEVSKIVASMWDSLGEEKKQVYKRKTEAAKKEYLKALAAYR | 0.037 ± 0.088 |

| Variant | abundance fitness |
| --- | --- |
| QKPVSAYALFFRDTQAAIKGQNPNATFGEVSKIVASMWDSLGEELKQVYKRKTEAAKKEYLKALAAYR | -0.433 ± 0.06 |
| QKPVSAYALFFRDTQAAIKGQNPNATFGEVSKIVASMWDSLGEEMKQVYKRKTEAAKKEYLKALAAYR | -0.431 ± 0.098 |
| QKPVSAYALFFRDTQAAIKGQNPNATFGEVSKIVASMWDSLGEENKQVYKRKTEAAKKEYLKALAAYR | -0.232 ± 0.16 |
| QKPVSAYALFFRDTQAAIKGQNPNATFGEVSKIVASMWDSLGEEPKQVYKRKTEAAKKEYLKALAAYR | -0.546 ± 0.066 |
| QKPVSAYALFFRDTQAAIKGQNPNATFGEVSKIVASMWDSLGEERKQVYKRKTEAAKKEYLKALAAYR | -0.059 ± 0.045 |
| QKPVSAYALFFRDTQAAIKGQNPNATFGEVSKIVASMWDSLGEESKQVYKRKTEAAKKEYLKALAAYR | -0.129 ± 0.061 |
| QKPVSAYALFFRDTQAAIKGQNPNATFGEVSKIVASMWDSLGEETKQVYKRKTEAAKKEYLKALAAYR | -0.114 ± 0.098 |
| QKPVSAYALFFRDTQAAIKGQNPNATFGEVSKIVASMWDSLGEEVKQVYKRKTEAAKKEYLKALAAYR | -0.278 ± 0.079 |
| QKPVSAYALFFRDTQAAIKGQNPNATFGEVSKIVASMWDSLGEEWKQVYKRKTEAAKKEYLKALAAYR | -0.642 ± 0.095 |
| QKPVSAYALFFRDTQAAIKGQNPNATFGEVSKIVASMWDSLGEEYKQVYKRKTEAAKKEYLKALAAYR | -0.373 ± 0.23 |
| QKPVSAYALFFRDTQAAIKGQNPNATFGEVSKIVASMWDSLGEEQCQVYKRKTEAAKKEYLKALAAYR | -0.714 ± 0.18 |
| QKPVSAYALFFRDTQAAIKGQNPNATFGEVSKIVASMWDSLGEEQDQVYKRKTEAAKKEYLKALAAYR | -0.678 ± 0.13 |
| QKPVSAYALFFRDTQAAIKGQNPNATFGEVSKIVASMWDSLGEEQEQVYKRKTEAAKKEYLKALAAYR | -1.05 ± 0.19 |
| QKPVSAYALFFRDTQAAIKGQNPNATFGEVSKIVASMWDSLGEEQFQVYKRKTEAAKKEYLKALAAYR | -0.913 ± 0.19 |
| QKPVSAYALFFRDTQAAIKGQNPNATFGEVSKIVASMWDSLGEEQGQVYKRKTEAAKKEYLKALAAYR | -0.8 ± 0.075 |
| QKPVSAYALFFRDTQAAIKGQNPNATFGEVSKIVASMWDSLGEEQHQVYKRKTEAAKKEYLKALAAYR | -0.836 ± 0.24 |
| QKPVSAYALFFRDTQAAIKGQNPNATFGEVSKIVASMWDSLGEEQIQVYKRKTEAAKKEYLKALAAYR | -0.398 ± 0.1 |
| QKPVSAYALFFRDTQAAIKGQNPNATFGEVSKIVASMWDSLGEEQLQVYKRKTEAAKKEYLKALAAYR | -0.537 ± 0.058 |
| QKPVSAYALFFRDTQAAIKGQNPNATFGEVSKIVASMWDSLGEEQMQVYKRKTEAAKKEYLKALAAYR | -0.356 ± 0.086 |
| QKPVSAYALFFRDTQAAIKGQNPNATFGEVSKIVASMWDSLGEEQPQVYKRKTEAAKKEYLKALAAYR | -0.978 ± 0.19 |
| QKPVSAYALFFRDTQAAIKGQNPNATFGEVSKIVASMWDSLGEEQQQVYKRKTEAAKKEYLKALAAYR | -0.08 ± 0.083 |
| QKPVSAYALFFRDTQAAIKGQNPNATFGEVSKIVASMWDSLGEEQSQVYKRKTEAAKKEYLKALAAYR | -0.811 ± 0.12 |
| QKPVSAYALFFRDTQAAIKGQNPNATFGEVSKIVASMWDSLGEEQTQVYKRKTEAAKKEYLKALAAYR | -0.395 ± 0.11 |
| QKPVSAYALFFRDTQAAIKGQNPNATFGEVSKIVASMWDSLGEEQVQVYKRKTEAAKKEYLKALAAYR | -0.437 ± 0.054 |
| QKPVSAYALFFRDTQAAIKGQNPNATFGEVSKIVASMWDSLGEEQWQVYKRKTEAAKKEYLKALAAYR | -0.988 ± 0.24 |
